Consider 2 molecules from PMC6482348.

The target of assay [1] is T1, endogenous mouse PrxII (mouse (endogenous in MEFs and BMDMs)), Q61171.
T1 chain: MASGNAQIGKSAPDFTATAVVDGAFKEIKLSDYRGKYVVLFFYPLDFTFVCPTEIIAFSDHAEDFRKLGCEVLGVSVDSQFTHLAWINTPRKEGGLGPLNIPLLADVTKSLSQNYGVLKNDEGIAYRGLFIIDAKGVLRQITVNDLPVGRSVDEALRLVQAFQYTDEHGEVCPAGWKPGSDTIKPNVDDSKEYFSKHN
Put plainly: nonreducing SDS-PAGE and immunoblot of disulfide-linked complexes. The settings on record: remark: other sources report otherwise. (A western blot detects proteins with antibodies after separation by electrophoresis.)

Assay [2] deals with T2, endogenous mouse PrxI (mouse (endogenous in BMDMs)), P35700.
T2 chain: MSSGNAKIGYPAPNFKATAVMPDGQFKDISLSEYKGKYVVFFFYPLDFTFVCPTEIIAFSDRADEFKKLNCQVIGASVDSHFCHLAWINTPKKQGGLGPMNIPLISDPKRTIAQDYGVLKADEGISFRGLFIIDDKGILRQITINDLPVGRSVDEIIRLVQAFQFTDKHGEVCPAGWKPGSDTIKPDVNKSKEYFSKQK
The assay is described as above. To be noted: remark: other sources report otherwise.

B1: endogenous mouse PrxII, Q61171 1-198 (enzyme)
chain: T1 chain
One may read the stoichiometry N as the number of molecules, sites or subunits per partner or assembly. Take B1: the stoichiometry N in assay [1] was found to be 2.

B2: endogenous mouse PrxI, P35700 1-199 (enzyme)
chain: T2 chain
For the molecule B2, the stoichiometry N in assay [2] is 2.
